Test results: paper doi:10.1101/2023.06.19.545293

Target: ZnF domain of A. thaliana SPL5 (Ser60-Leu127) (A. thaliana) (UniProt Q9S758)
Test: ITC

Chain of ZnF domain of A. thaliana SPL5 (Ser60-Leu127) (A. thaliana) (Q9S758 60-127): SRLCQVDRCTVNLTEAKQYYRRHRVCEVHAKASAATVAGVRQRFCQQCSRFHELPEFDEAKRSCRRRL

“SAP05 (mature, Ala33-Lys135) of Aster Yellows phytoplasma strain Witches Broom (natural protein)” showed a Kd of 450 nM and a stoichiometry N of 1.
